From US20260263647A1 (Dana-Farber, published 2026) come the findings set out here.

Test [1] concerns the target T1, human CD45 on human peripheral blood mononuclear cells (PBMCs) (human, UniProt P08575 26-1306).
T1 construct: whole, on cells; The target is inferred from the cells used (CD45+ human PBMCs); also called hCD45
T1 sequence (looked up): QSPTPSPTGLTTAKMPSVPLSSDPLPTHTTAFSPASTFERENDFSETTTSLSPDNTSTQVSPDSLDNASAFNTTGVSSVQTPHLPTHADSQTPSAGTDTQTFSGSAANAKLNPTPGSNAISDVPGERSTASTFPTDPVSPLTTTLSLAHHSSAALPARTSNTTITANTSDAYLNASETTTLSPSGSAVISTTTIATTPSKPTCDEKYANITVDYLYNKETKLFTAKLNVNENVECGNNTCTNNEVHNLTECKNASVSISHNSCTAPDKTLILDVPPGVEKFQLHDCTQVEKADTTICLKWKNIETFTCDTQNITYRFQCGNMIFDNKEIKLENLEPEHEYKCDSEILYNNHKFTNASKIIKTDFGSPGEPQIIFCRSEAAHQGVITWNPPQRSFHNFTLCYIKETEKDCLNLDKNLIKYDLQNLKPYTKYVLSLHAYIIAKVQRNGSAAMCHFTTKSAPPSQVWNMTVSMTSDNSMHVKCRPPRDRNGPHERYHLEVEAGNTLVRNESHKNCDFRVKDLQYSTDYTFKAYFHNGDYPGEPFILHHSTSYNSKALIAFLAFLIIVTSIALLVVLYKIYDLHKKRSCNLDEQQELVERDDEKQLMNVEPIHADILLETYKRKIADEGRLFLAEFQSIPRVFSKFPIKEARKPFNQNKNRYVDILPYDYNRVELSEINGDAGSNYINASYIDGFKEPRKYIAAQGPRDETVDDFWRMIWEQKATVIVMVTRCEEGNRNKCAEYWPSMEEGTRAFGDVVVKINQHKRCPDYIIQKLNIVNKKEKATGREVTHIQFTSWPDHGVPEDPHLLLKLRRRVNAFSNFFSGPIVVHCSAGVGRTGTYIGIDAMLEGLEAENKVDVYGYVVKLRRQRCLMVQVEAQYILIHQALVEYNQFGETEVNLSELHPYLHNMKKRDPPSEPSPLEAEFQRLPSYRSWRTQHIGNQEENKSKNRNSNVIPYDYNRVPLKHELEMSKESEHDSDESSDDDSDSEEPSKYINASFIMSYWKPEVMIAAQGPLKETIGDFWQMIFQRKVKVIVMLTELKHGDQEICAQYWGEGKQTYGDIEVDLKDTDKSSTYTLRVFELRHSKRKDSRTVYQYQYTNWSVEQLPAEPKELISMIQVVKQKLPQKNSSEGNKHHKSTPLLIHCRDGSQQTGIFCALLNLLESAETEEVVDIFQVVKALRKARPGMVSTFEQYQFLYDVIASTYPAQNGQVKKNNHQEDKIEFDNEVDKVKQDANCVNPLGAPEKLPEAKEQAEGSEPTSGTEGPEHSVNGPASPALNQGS
Description: flow cytometry on human PBMCs.

Test [2] addresses T1, human CD45 on human peripheral blood …. Description: flow cytometry, staining of human PBMCs with different concentrations of the minibody. For orientation: In flow cytometry, cells or beads pass a laser one at a time.

B1: CD45 minibody (anti-human CD45 antibody fragment, clone BC8 scFv fused to the IgG1 CH3 domain) (other)
chain: QVQLVESGGGLVQPGGSLKLSCAASGFDFSRYWMSWVRQAPGKGLEWIGEINPTSSTINFTPSLKDKVFISRDNAKNTLYLQMSKVRSEDTALYYCARGNYYRYGDAMDYWGQGTSVTVSKISGGGGSGGGGSGGGGSGGGGSGGGGSSDIVLTQSPASLAVSLGQRATISCRASKSVSTSGYSYLHWYQQKPGQPPKLLIYLASNLESGVPARFSGSGSGTDFTLNIHPVEEEDAATYYCQHSRELPFTFGSGTKLEIKGGGSEPKSPKSADKTHTAPQPREPQVYTLPPSRDELTKNQVSLTCLVKGFYPSDIAVEWESNGQPENNYKTTPPVLDSDGSFFLYSKLTVDKSRWQQGNVFSCSVMHEALHNHYTQKSLSLSPGKDYKDDDKHHHHHH
notes: also called anti-CD45-minibody probe; human CD45-PET probe
Consider B1, for which the concentration giving a half-maximal response (EC50) is ~5 nM in test [1] and ~10 nM in test [2].

A word on the EC50: it is the concentration needed to bring the measured effect to its halfway point. Higher therefore signals weaker potency.
